B1: HDV Ribozyme (parent)
chain: GGCCGGCAUGGUCCCAGCCUCCUCGCUGGCGCCGGCUGGGCAACAUUCCGAGGGGACCGUCCCCUCGGUAAUGGCGAAUGGGACCCA

In the series the parent is B1. Description: self-cleavage, relative activity (ratio to wild type); higher = more cleavage; co-transcriptional.
With G74C A83C, the self-cleavage was determined as 0.295. Then G74C A83U, with 0.185; and G81C G82U, with 0.287; and G80U C86U, with 0.281. For G80U C86A, the self-cleavage was found to be 0.239. On to A78C A83C, for which the self-cleavage was 0.151.

Take G80U C85U: the self-cleavage stood at 0.227. In the case of G76U C86G it was 1.09; in that of G76U C86A, 0.615; in that of G74U C85A, 0.415. Take U79C G80C: the self-cleavage turned out to be 0.208. On to C75A C85A, for which the self-cleavage stood at 0.175. Turning to A77U G81A, the self-cleavage is 0.185.

Regarding A77U G81U, the self-cleavage amounted to 0.237.

Regarding G74U G80A, the self-cleavage was 0.0845. As for G74U G80C, the self-cleavage was 0.164. In the case of A78G G82C it was 0.0519; in that of A78G G82U, 0.295. For the variant A77G C86U, the self-cleavage turned out to be 0.886. Consider C75G C86A, for which the self-cleavage worked out at 0.147. Regarding G80C C86G, the self-cleavage worked out at 0.192. For the variant C75U G82U, the self-cleavage was 0.296. As to A78U G81U, the self-cleavage is 0.269. In the case of G74U G81A, the self-cleavage worked out at 0.211. Take A77G C84U: the self-cleavage stood at 0.631.

With G81U A87G, the self-cleavage amounted to 0.291. Consider G81U A87C, for which the self-cleavage was 0.444.

On to A77U A83U, for which the self-cleavage is 0.0898.

Regarding A77C A78U, the self-cleavage was 0.208. In the case of G81A C86G it was 0.45; in that of G81A C86U, 0.546. As to C75A A87U, the self-cleavage came out at 0.111. Consider A78C C85U, for which the self-cleavage is 0.0923.

Turning to A78C C85A, the self-cleavage was 0.277. Consider G74U A87C, for which the self-cleavage was determined as 0.554. In the case of G74U A87G it was 0.473; in that of G80C G82C, 0.166; in that of G80C G82A, 0.0824. G80C G82U: the self-cleavage was 0.0782. In the case of A77U A87U it was 0.785; in that of U79A C86A, 0.688; in that of C75U U79A, 0.151. As to C75U U79G, the self-cleavage was found to be 0.0594. Then U79G A87G, with 0.669.

With U79G A87U, the self-cleavage was determined as 0.511. For U79G A87C, the self-cleavage is 0.656. In the case of G76C C84U, the self-cleavage stood at 1.04. As for G76C C84A, the self-cleavage was 1.19.

Regarding U79C C86G, the self-cleavage worked out at 0.284.

Take U79C C86U: the self-cleavage worked out at 0.696. On to G74U A83C, for which the self-cleavage turned out to be 0.271. For G74U A83G, the self-cleavage was 0.256.

On to A78G U79G, for which the self-cleavage turned out to be 0.268. Consider U79C C85U, for which the self-cleavage was 0.499. G74C C86U: the self-cleavage stood at 0.189. Regarding G74C C86G, the self-cleavage is 0.201. Then G74C C86A, with 0.201.

As for A77G G81C, the self-cleavage amounted to 0.256. Turning to A77G G81A, the self-cleavage turned out to be 0.287. On to A77G G81U, for which the self-cleavage came to 0.348.

For the variant A77G G80U, the self-cleavage came out at 0.244. Then C75U A77G, with 0.0415; and C75U A77C, with 0.208; and G74U G76A, with 0.453. Regarding U79G C86G, the self-cleavage was found to be 0.712. For the variant U79G C86U, the self-cleavage was determined as 0.739. Turning to A77G A78U, the self-cleavage was 0.266. Turning to A77G A78G, the self-cleavage amounted to 0.277. In the case of A77G A78C it was 0.172; in that of A77U C85A, 0.514; in that of G80C G81U, 0.231. Turning to G80C G81C, the self-cleavage came out at 0.186. With G74C G82U, the self-cleavage is 0.179.

In the case of C75U A78G, the self-cleavage stood at 0.214. With C75U A78U, the self-cleavage is 0.264. In the case of G76U G82C it was 0.277; in that of G76U G82A, 0.343; in that of G74C G81C, 0.196. Consider G74C G81A, for which the self-cleavage amounted to 0.0875. With G74C C75U, the self-cleavage was 0.108.

As to G74C C75A, the self-cleavage was found to be 0.252. As for C75A G81A, the self-cleavage was determined as 0.151.

In the case of A78G A87C, the self-cleavage was determined as 0.452. A78G A87U: the self-cleavage came out at 0.862.

As to G80A A87U, the self-cleavage was 0.441.

For G80A A87C, the self-cleavage stood at 0.33.

With A77C G81U, the self-cleavage was 0.116.

Consider A77C G81A, for which the self-cleavage was determined as 0.173.

Consider G76C A78G, for which the self-cleavage stood at 0.944.

In the case of G76C A78C, the self-cleavage was found to be 0.192.

As to G74U C75U, the self-cleavage came out at 0.151. In the case of C75U it was 0.19. In the case of C75G it was 0.159; in that of C75A, 0.171. Then A78U A83U, with 0.269; and A78U A83G, with 0.285. Regarding G76A C84A, the self-cleavage is 0.958.

As to U79A G80A, the self-cleavage is 0.234. Then U79A G80C, with 0.204. Take A78G G81U: the self-cleavage was determined as 0.185. With G76A G81A, the self-cleavage worked out at 0.332. Take A77G A83U: the self-cleavage came out at 0.635. Consider A77G A83C, for which the self-cleavage is 0.208.

Regarding A77U U79C, the self-cleavage amounted to 0.0811. In the case of A77U U79A it was 0.32.

Regarding U79G, the self-cleavage is 0.742. In the case of U79A it was 0.808; in that of U79C, 0.438. With U79G G80U, the self-cleavage amounted to 0.366. On to U79G G80A, for which the self-cleavage was 0.249. In the case of C75G G76A it was 0.196. With C75G G76U, the self-cleavage is 0.237.

Take A78C A87C: the self-cleavage came out at 0.199. On to A78C A87G, for which the self-cleavage was found to be 0.127. A78C A87U: the self-cleavage turned out to be 0.199. Consider G76A A83C, for which the self-cleavage turned out to be 0.539. As to G76A A83G, the self-cleavage came out at 0.992. On to G76U A87U, for which the self-cleavage turned out to be 1.04. Turning to G80A C84U, the self-cleavage was found to be 0.197. As for A77C A83U, the self-cleavage is 0.312. As for A77C A83G, the self-cleavage stood at 0.156.

As to A78C G81A, the self-cleavage turned out to be 0.17. In the case of U79C C84U, the self-cleavage was 0.332. Regarding U79C C84G, the self-cleavage amounted to 0.214.

On to G81A C85G, for which the self-cleavage is 0.175. As for G81C C86A, the self-cleavage was 0.554. In the case of G81C C86U it was 0.302; in that of G80A A83U, 0.229; in that of G80A A83G, 0.396. As for C75A G82A, the self-cleavage came to 0.151. Regarding G80U G81C, the self-cleavage stood at 0.199. In the case of A78U G80U it was 0.244; in that of A78U G80C, 0.174; in that of G76C G82U, 0.326. Consider U79A G82A, for which the self-cleavage worked out at 0.227. As to C75A G76C, the self-cleavage stood at 0.166. With A78C U79C, the self-cleavage is 0.153. Then A78C U79G, with 0.113. In the case of C75A U79C, the self-cleavage is 0.0707. In the case of A78U G82A, the self-cleavage amounted to 0.109. Regarding C75U C84A, the self-cleavage came out at 0.237.

As to C75U C84G, the self-cleavage was 0.136. For the variant C75G C84A, the self-cleavage amounted to 0.259. With C75G C84U, the self-cleavage was determined as 0.0978. Regarding C75A A78U, the self-cleavage was determined as 0.0852. With G80A C85G, the self-cleavage was determined as 0.312.

G80A C85U: the self-cleavage was found to be 0.339.

Turning to C75G G80A, the self-cleavage worked out at 0.11. On to C75G G80U, for which the self-cleavage turned out to be 0.104.

With A78G C85A, the self-cleavage stood at 0.86.

On to A78G C85G, for which the self-cleavage turned out to be 0.539.

Take G76A G82U: the self-cleavage amounted to 0.601. Then G76A G82A, with 0.35. With G76A G82C, the self-cleavage is 0.214. On to G76C G81A, for which the self-cleavage turned out to be 0.499. In the case of U79C A83U it was 0.323; in that of U79C A83C, 0.374; in that of G74C G80C, 0.183. Turning to A77C C84G, the self-cleavage was found to be 0.317. Then A77U G80A, with 0.0923.

As to A77U G80C, the self-cleavage stood at 0.136.

With A77U G80U, the self-cleavage stood at 0.161.

Take A78G G80A: the self-cleavage came out at 0.242. Then G74C C85U, with 0.128. Take G74C C85A: the self-cleavage was 0.217. In the case of G81C C85A, the self-cleavage was determined as 0.213.

As to G81C C85G, the self-cleavage stood at 0.128.

(Values after the RNAGym collection of RNA variant scans (doi:10.7554/elife.80360).)
